Results reported in the supplement of paper PMC9170038.

System: K4 kissing-loop RNA reporter
Experiment: apparent KD of K4 kissing-loop reporter; higher = weaker reporter binding
Conditions: Eterna round: R107
Description: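 RNA-MaP round R107: designed RNA switches with theophylline, tryptophan, arginine or FMN aptamers are transcribed on-chip within common flanks. They are titrated with a labelled K4 kissing-loop RNA reporter in RNA-MaP buffer (100 mM Tris pH 7.5, 80 mM KCl, 4 mM MgCl2), without ligand or with the indicated ligand. Median apparent KD per design.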

[1] = input ligand: theophylline 20 uM
[2] = input ligand: tryptophan 2.4 mM
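Also: bound reporter read as fluorescence of individual clusters on recovered sequencing chips by microscopy, with normalized cluster intensities fitted with a binding model.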

| Sequence | apparent KD of K4 kissing-loop reporter (input ligand: FMN 200 uM) [nM] | apparent KD of K4 kissing-loop reporter (input ligand: arginine 13.2 mM) [nM] | apparent KD of K4 kissing-loop reporter (input ligand: none) [nM] | apparent KD of K4 kissing-loop reporter [1] [nM] | apparent KD of K4 kissing-loop reporter [2] [nM] |
| --- | --- | --- | --- | --- | --- |
| AUUUAAUUAACUGAUACCAGACUUAAUGUUUUGUAUAUUACUAGUGAUGUUAGUGAUUCUGUCCCUUGGCAGCAGUAUCUACUUA [JR_ExcTheophyB_Sub014] | 140 | 152 | 152 | 153 | 117 |
| AUUUAAUUAACUGAUACCAGACUUUUUGUUUUGUAUAUUACUAGUGAUGUUAGUGUUUCUGUCCCUUGGCAGCAGUAUCUACUUA [JR_ExcTheophyB_Sub016] | 197 | 252 | 225 | 298 | 157 |
| AUUUAUUCGUACUUUCAGUGAUGUUGAUAACGAGGACCGGUACGGCCGCCACUCGAUUUGGCGAUUUUGUAUUUUUUAUUCUAUA [JR_SSTryptoA_Sub010] | 403 | 474 | 510 | 415 | 317 |
| AUUUUGGUUGAAGGAUAUUCUCCCAUCGACGCGAUAAGAUACUUUGGAAGGUUUGCAGUGAUGUUGGAAGAAGGUCAAAGUUGUA [theeternabot_exclusion_KL_FMN_B_22] | 479 | 382 | 611 | 689 | 523 |
| CAAGGACGGCCGUAGGCAUACCGUCGAUUCAAGGAUAUCAAGAGAAUGAGAAGGUGAAGUUUAUACAGUGAUGUUGCUAUAGAGA [theeternabot_sameState_KL_FMN_A_6] | 133 | 122 | 168 | 195 | 152 |
| CACGAUGAAUUCUCUAGGAGUGAUGUUUUUCGAGGACCGGUACGGCCGCCACUCGGACCAGGAACGUGGGAGCGGCGAAAAGACU [jbmullin] | 665 | 312 | 930 | 500 | 343 |
| CACGAUGAAUUCUCUAGGAGUGAUGUUUUUCGAGGACCGGUACGGCCGCCACUCGGACCAGGAGCGUGGUAGCGGCGAAAAGACU [zpmullin] | 769 | 256 | 545 | 523 | 484 |
| CAUACGCAUGGAGGAUAUGAGAUUUCUCAUAUUAUUUAUUAUUCUCAGUGAUGUUGGGAUUUAAACUCAGAAGGCCAUGUGUAUG [Ex FMN B 8] | 252 | 176 | 175 | 244 | 199 |
| CAUAUAUACACUAACCCGUACGGUAGUAAGCGAGGACCGGUACGGCCGCCACUCGAUCGUUUCGUGUUAGCACCAGUGAUGUUGG [theeternabot_sameState_KL_Trp_A_3] | 461 | 399 | 526 | 431 | 392 |
| CAUCUCAUGAAAUGAGAUGUCAUCAGUGAAGGAGCGCUAUUAGCAGCAGGUAGGUCGCACUGAAGCGGAGUGAUGUUCUGUAUGA [Arg A SS t3] | 170 | 220 | 293 | 214 | 150 |
| CAUGCCAUGAUCCUCCUGGUAUCUCCUGAUACCAGCGUGCUGACACGCCCUUGGCAGCAGGAGUCGAGAGUGAUGUUGUCGAGAA [KL-SSTheo-A9 #analogue] | 568 | 174 | 184 | 373 | 328 |
